Data: the supplement of paper PMC9112550, “Optimization of the antimicrobial peptide Bac7 by deep mutational scanning” (BMC Biology, 2022)

Tested on: Escherichia coli TOP10
Assay: shrunken log2 fold change of peptide-encoding DNA abundance (4.5 h post-induction vs induction); higher = less antimicrobial activity (less host growth inhibition)
Details: time post-induction: 4.5 h; library: site-saturation at positions 5, 18, 19, 20
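Also: peptides expressed intracellularly from a pBAD plasmid library in pooled LB shake-flask culture, induced with 0.3% L-arabinose, DNA abundance read by NGS, three biological replicates, DESeq2 with apeglm shrinkage.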

Sequence	shrunken log2 fold change
RRIRARPPRLPRPRPRPFFIPRP	-0.211
RRIRARPPRLPRPRPRPFGDPRP	0.483
RRIRARPPRLPRPRPRPFGKPRP	0.0252
RRIRARPPRLPRPRPRPFGRPRP	0.547
RRIRARPPRLPRPRPRPFGTPRP	-0.194
RRIRARPPRLPRPRPRPFGYPRP	0.167
RRIRARPPRLPRPRPRPFIFPRP	0.419
RRIRARPPRLPRPRPRPFILPRP	-0.39
RRIRARPPRLPRPRPRPFIYPRP	-0.264
RRIRARPPRLPRPRPRPFLHPRP	0.0154
RRIRARPPRLPRPRPRPFMAPRP	-0.163
RRIRARPPRLPRPRPRPFMPPRP	-0.149
RRIRARPPRLPRPRPRPFNCPRP	-0.357
RRIRARPPRLPRPRPRPFPPPRP	0.332
RRIRARPPRLPRPRPRPFQFPRP	-0.158
RRIRARPPRLPRPRPRPFRFPRP	0.0596
RRIRARPPRLPRPRPRPFRVPRP	-0.19
RRIRARPPRLPRPRPRPFSIPRP	0.111
RRIRARPPRLPRPRPRPFTIPRP	-0.142
RRIRARPPRLPRPRPRPFTPPRP	-0.0978

Sequence	shrunken log2 fold change
RRIRARPPRLPRPRPRPFVEPRP	0.108
RRIRARPPRLPRPRPRPFVIPRP	0.0345
RRIRARPPRLPRPRPRPFVNPRP	0.164
RRIRARPPRLPRPRPRPFWEPRP	0.269
RRIRARPPRLPRPRPRPFYQPRP	-0.00727
RRIRARPPRLPRPRPRPGCTPRP	0.552
RRIRARPPRLPRPRPRPGDMPRP	0.374
RRIRARPPRLPRPRPRPGGIPRP	0.254
RRIRARPPRLPRPRPRPGHDPRP	0.215
RRIRARPPRLPRPRPRPGHKPRP	-0.197
RRIRARPPRLPRPRPRPGIHPRP	0.37
RRIRARPPRLPRPRPRPGMDPRP	0.543
RRIRARPPRLPRPRPRPGMQPRP	0.094
RRIRARPPRLPRPRPRPGMWPRP	0.485
RRIRARPPRLPRPRPRPGMYPRP	-0.111
RRIRARPPRLPRPRPRPGNKPRP	-0.186
RRIRARPPRLPRPRPRPGNNPRP	-0.0708
RRIRARPPRLPRPRPRPGRLPRP	0.895
RRIRARPPRLPRPRPRPGSPPRP	0.394
RRIRARPPRLPRPRPRPGTEPRP	0.376

Sequence	shrunken log2 fold change
RRIRARPPRLPRPRPRPGVGPRP	0.805
RRIRARPPRLPRPRPRPGWHPRP	0.378
RRIRARPPRLPRPRPRPGYKPRP	-0.268
RRIRARPPRLPRPRPRPGYPPRP	0.0269
RRIRARPPRLPRPRPRPGYYPRP	-0.254
RRIRARPPRLPRPRPRPHDSPRP	0.037
RRIRARPPRLPRPRPRPHFIPRP	0.179
RRIRARPPRLPRPRPRPHIKPRP	-0.388
RRIRARPPRLPRPRPRPHKCPRP	-0.205
RRIRARPPRLPRPRPRPHKIPRP	-0.0893
RRIRARPPRLPRPRPRPHPFPRP	0.0322
RRIRARPPRLPRPRPRPHRFPRP	-0.176
RRIRARPPRLPRPRPRPHSRPRP	-0.0946
RRIRARPPRLPRPRPRPHTDPRP	-0.111
RRIRARPPRLPRPRPRPHVAPRP	0.114
RRIRARPPRLPRPRPRPHVNPRP	-0.467
RRIRARPPRLPRPRPRPHVPPRP	-0.242
RRIRARPPRLPRPRPRPHWCPRP	0.0773
RRIRARPPRLPRPRPRPHYAPRP	-0.0521
RRIRARPPRLPRPRPRPHYEPRP	-0.234
